These results are taken from paper PMC5405039, “Genome-wide identification of grain filling genes regulated by the OsSMF1 transcription factor in rice”.

B1: ACGT 21-bp wild type (dsDNA)
DNA 1: AAGCGCCACGTCAGCCAAAAC
DNA 2: GTTTTGGCTGACGTGGCGCTT
B2: ATGA 21-bp wild type (dsDNA)
DNA 1: CTGATTCGGATGACGGACGAA
DNA 2: TTCGTCCGTCATCCGAATCAG
B3: GCN4 21-bp wild type (dsDNA)
DNA 1: GTTTGTCATGGCTGAGTCATG
DNA 2: CATGACTCAGCCATGACAAAC

The data set concerns the target T1, OsSMF1 (RISBZ1, OsbZIP58)-DsRed fusion (Oryza sativa cv. Ilmi, UniProt Q6ZLB0 1-436).
T1 sequence: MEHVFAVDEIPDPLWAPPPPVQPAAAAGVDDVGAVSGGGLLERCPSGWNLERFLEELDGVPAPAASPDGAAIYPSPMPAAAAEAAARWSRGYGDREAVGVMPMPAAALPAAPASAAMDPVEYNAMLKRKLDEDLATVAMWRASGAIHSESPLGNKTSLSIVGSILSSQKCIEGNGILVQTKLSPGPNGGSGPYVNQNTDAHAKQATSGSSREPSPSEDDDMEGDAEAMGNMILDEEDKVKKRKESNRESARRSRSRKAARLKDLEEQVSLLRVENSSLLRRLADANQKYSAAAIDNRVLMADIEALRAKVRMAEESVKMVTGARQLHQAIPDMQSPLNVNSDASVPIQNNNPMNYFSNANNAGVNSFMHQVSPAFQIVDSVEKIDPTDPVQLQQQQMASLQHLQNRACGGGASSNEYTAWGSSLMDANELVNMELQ
Put plainly: EMSA (SYBR Gold); 5 mM MgCl2; Kd EMSA: 10 mM Tris, 50 mM KCl, 1 mM DTT pH 7.5, 50 ng/ul poly(dI-dC), 2.5% glycerol, 0.05% NP-40, 5 mM MgCl2, 0.2 ug/ul OsSMF1, DNA 0-6 uM, 1 h room temperatur. Particulars: protein: recombinant; tags: DsRed fusion; Ni-NTA purified; chain copies: 2; SYBR Gold stain (Kd); 21 bp.
B1: the Kd (commonly the concentration at which binding is half-saturated) was found to be 0.335 µM.
B2: the Kd worked out at 1.12 µM.
Take B3: the Kd worked out at 0.646 µM.
